Measurements as given in IntAct's records for PubMed 31515488.
Values belong to the substance of their own block, whether it stands above or below them.

Key:
[1] = target: sdcb1_human SDCBP (UniProt O00560)
[2] = target: prdc1_human PRTFDC1 (UniProt Q9NRG1)
[3] = target: tri23_human TRIM23 (UniProt P36406)
[4] = target: grn_human GRN (UniProt P28799)
[5] = target: gpix_human GP9 (UniProt P14770)
[6] = target: trip6_human TRIP6 (UniProt Q15654)
[7] = target: rgs20_human RGS20 (UniProt O76081)
[8] = target: k1h1_human KRT31 (UniProt Q15323)
[9] = target: TSC22D1 (UniProt Q15714)
[10] = target: vac14_human VAC14 (UniProt Q08AM6)
[11] = target: pygm_human PYGM (UniProt P11217)
[12] = target: nud14_human NUDT14 (UniProt O95848)
Chain of nud14_human NUDT14 (O95848 whole entry): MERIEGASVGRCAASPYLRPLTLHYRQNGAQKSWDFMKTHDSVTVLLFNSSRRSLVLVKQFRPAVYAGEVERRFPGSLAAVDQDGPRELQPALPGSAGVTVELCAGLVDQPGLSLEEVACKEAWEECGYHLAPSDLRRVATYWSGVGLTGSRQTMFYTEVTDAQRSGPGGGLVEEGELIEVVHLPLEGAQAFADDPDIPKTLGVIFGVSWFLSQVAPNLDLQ

[13] = target: cdr2_human CDR2 (UniProt Q01850)
[14] = target: thap1_human THAP1 (UniProt Q9NVV9)
Chain of thap1_human THAP1 (Q9NVV9 whole entry): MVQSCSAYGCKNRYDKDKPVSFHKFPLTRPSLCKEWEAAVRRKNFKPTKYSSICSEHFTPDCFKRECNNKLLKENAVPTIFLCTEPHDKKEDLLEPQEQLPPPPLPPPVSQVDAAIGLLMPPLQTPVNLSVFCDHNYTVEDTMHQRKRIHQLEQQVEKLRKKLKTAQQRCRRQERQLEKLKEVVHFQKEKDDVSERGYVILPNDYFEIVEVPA

[15] = target: gas7_human GAS7 (UniProt O60861)
[16] = target: kctd1_human KCTD1 (UniProt Q719H9)
[17] = target: mif_human MIF (UniProt P14174)
[18] = target: dnja3_human DNAJA3 (UniProt Q96EY1)
Chain of dnja3_human DNAJA3 (Q96EY1 whole entry): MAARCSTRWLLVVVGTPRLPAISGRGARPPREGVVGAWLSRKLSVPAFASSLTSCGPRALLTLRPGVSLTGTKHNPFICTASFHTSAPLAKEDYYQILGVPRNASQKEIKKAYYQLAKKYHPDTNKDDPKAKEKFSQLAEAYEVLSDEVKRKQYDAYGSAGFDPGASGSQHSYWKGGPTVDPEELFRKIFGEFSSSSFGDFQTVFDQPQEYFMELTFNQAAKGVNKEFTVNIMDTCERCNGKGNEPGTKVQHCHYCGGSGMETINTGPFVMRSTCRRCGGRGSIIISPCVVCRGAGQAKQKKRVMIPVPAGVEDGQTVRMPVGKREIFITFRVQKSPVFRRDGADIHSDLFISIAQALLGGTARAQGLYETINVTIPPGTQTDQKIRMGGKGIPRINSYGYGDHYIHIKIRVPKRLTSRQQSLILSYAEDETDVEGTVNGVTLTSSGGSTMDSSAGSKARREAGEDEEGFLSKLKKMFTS

[19] = target: edad_human EDARADD (UniProt Q8WWZ3)
[20] = target: cdd_human CDA (UniProt P32320)
[21] = target: lonf1_human LONRF1 (UniProt Q17RB8)
[22] = target: pnma5_human PNMA5 (UniProt Q96PV4)
[23] = target: tolip_human TOLLIP (UniProt Q9H0E2)
[24] = target: dctp1_human DCTPP1 (UniProt Q9H773)
Chain of dctp1_human DCTPP1 (Q9H773 whole entry): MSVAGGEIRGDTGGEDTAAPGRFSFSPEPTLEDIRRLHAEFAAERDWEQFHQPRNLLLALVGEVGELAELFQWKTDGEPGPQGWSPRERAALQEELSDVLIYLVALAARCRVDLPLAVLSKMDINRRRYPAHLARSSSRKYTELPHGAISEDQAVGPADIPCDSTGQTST

[25] = target: rpia_human RPIA (UniProt P49247)
[26] = target: lztl1_human LZTFL1 (UniProt Q9NQ48)
[27] = target: mtnb_human APIP (UniProt Q96GX9)
[28] = target: actg_human ACTG1 (UniProt P63261)
[29] = target: ncoa5_human NCOA5 (UniProt Q9HCD5)
[30] = target: CCDC102B (UniProt Q68D86)
[31] = target: pnma1_human PNMA1 (UniProt Q8ND90)
[32] = target: cryaa_human CRYAA (UniProt P02489)
[33] = target: dhb14_human HSD17B14 (UniProt Q9BPX1)
[34] = target: birc2_human BIRC2 (UniProt Q13490)
Chain of birc2_human BIRC2 (Q13490 whole entry): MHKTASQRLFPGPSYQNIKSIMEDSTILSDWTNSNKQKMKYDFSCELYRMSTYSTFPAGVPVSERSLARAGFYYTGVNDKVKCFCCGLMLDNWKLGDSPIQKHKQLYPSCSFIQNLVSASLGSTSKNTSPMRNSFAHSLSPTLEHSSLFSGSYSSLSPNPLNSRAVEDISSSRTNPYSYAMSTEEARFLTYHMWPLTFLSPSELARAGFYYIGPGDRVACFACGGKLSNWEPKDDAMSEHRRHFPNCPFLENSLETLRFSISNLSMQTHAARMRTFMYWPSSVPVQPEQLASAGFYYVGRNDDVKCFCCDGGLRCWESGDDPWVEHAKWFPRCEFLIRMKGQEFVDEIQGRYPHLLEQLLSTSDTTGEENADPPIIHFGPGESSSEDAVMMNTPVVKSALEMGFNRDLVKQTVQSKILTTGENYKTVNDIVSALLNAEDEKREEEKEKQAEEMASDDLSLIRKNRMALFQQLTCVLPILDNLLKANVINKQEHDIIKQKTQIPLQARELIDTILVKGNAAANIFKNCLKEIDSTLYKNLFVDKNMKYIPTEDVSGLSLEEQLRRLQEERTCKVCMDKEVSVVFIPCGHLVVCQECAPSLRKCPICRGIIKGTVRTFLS

[35] = target: ndka_human NME1 (UniProt P15531)
[36] = target: prps2_human PRPS2 (UniProt P11908)
[37] = target: ei2ba_human EIF2B1 (UniProt Q14232)
Chain of ei2ba_human EIF2B1 (Q14232 whole entry): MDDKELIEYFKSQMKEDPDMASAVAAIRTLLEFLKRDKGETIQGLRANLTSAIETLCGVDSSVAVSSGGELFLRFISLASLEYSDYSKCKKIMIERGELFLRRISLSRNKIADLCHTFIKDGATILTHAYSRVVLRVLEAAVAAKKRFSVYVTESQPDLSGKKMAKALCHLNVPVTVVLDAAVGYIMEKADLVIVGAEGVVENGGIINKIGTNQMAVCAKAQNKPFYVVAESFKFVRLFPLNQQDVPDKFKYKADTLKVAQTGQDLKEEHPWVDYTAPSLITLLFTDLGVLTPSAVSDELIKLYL

[38] = target: frih_human FTH1 (UniProt P02794)
[39] = target: ca050_human C1orf50 (UniProt Q9BV19)
Chain of ca050_human C1orf50 (Q9BV19 whole entry): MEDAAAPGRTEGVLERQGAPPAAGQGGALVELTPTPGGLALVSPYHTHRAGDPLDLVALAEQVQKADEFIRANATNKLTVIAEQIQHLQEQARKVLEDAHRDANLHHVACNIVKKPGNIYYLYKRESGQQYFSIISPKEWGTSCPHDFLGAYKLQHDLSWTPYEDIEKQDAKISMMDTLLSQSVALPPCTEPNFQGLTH

[40] = target: mbip1_human MBIP (UniProt Q9NS73)
[41] = target: actb_human ACTB (UniProt P60709)
[42] = target: gnmt_human GNMT (UniProt Q14749)
Chain of gnmt_human GNMT (Q14749 whole entry): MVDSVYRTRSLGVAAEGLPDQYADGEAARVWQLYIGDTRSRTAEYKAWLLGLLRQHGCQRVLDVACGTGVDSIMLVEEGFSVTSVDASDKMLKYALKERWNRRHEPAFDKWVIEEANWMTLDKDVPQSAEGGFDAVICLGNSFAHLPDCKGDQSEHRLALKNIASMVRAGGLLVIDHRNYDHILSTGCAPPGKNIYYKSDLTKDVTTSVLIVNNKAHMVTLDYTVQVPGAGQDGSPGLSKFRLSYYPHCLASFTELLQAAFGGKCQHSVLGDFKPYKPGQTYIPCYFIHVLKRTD

[43] = target: otub1_human OTUB1 (UniProt Q96FW1)
[44] = target: rn115_human RNF115 (UniProt Q9Y4L5)
[45] = target: rnf14_human RNF14 (UniProt Q9UBS8)
Chain of rnf14_human RNF14 (Q9UBS8 whole entry): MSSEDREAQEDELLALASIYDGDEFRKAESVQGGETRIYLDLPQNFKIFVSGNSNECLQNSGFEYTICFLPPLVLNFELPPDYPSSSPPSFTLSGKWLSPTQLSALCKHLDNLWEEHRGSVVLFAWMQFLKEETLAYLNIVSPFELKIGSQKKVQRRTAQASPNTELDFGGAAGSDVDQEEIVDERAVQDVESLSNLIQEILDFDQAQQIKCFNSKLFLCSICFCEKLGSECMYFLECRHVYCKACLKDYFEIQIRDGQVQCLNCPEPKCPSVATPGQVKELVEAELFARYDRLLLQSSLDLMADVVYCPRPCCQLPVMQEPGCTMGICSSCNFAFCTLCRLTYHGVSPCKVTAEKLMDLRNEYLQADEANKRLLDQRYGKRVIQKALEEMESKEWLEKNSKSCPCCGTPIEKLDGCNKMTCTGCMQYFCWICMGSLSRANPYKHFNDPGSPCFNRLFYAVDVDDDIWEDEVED

[46] = target: trim1_human MID2 (UniProt Q9UJV3)
[47] = target: dtx2_human DTX2 (UniProt Q86UW9)

Chain of FAD synthase (Homo sapiens), Q8NFF5 R228H (Q8NFF5 whole entry R228H): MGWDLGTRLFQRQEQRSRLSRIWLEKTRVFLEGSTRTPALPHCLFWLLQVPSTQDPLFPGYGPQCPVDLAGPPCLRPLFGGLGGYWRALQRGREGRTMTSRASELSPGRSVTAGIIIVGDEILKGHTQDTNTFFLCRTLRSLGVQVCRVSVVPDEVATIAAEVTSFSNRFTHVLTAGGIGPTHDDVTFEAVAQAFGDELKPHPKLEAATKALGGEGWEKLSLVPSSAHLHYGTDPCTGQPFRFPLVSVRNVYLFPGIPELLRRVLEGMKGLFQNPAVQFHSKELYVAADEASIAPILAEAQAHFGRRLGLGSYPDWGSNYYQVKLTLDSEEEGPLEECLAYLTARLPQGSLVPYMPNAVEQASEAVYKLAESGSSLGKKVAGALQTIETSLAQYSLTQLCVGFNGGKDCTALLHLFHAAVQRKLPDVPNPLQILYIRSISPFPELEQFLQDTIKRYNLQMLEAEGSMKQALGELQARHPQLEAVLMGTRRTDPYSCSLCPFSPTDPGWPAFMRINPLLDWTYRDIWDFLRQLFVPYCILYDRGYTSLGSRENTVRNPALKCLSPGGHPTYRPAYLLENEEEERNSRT
Chain of Homeobox protein Hox-A1 (Homo sapiens), P49639 S98R (P49639 whole entry S98R): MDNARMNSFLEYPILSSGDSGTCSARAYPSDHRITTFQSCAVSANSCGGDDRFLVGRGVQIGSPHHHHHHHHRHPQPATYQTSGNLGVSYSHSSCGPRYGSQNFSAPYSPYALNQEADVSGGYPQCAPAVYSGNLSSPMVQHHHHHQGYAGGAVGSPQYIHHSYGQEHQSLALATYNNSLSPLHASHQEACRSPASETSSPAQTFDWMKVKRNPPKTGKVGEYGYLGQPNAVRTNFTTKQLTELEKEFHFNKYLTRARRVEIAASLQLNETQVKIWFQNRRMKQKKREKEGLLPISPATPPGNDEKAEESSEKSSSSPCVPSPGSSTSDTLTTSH
Chain of Ubiquitin-conjugating enzyme E2 D4 (Homo sapiens), Q9Y2X8 G27S (Q9Y2X8 whole entry G27S): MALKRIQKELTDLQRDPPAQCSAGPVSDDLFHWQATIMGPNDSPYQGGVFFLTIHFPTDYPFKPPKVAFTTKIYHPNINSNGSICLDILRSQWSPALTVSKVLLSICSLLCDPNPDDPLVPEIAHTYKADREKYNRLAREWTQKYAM
Chain of prdc1_human PRTFDC1 (Q9NRG1 whole entry): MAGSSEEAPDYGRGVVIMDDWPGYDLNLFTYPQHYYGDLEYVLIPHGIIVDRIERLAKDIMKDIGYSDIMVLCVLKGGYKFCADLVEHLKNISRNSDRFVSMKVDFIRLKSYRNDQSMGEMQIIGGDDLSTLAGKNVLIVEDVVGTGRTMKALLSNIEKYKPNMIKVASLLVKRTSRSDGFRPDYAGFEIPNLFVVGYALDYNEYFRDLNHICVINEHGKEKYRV
Chain of tri23_human TRIM23 (P36406 whole entry): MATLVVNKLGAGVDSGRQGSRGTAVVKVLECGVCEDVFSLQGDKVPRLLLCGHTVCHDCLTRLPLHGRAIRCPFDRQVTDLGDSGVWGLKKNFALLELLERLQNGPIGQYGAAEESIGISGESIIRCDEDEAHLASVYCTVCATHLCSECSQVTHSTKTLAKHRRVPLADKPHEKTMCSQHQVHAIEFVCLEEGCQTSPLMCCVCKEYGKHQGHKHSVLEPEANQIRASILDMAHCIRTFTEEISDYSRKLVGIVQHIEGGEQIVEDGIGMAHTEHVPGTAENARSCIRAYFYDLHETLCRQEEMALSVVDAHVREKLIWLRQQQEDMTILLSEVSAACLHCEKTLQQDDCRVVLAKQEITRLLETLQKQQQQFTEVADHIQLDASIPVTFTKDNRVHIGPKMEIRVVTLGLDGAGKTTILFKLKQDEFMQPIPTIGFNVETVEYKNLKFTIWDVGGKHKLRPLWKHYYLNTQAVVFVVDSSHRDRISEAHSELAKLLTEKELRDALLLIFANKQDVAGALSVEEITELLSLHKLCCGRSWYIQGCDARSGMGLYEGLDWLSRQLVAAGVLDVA

effect of a mutation on the interaction [1]: with no effect | effect of a mutation on the interaction [2]: with no effect | effect of a mutation on the interaction [3]: with no effect
Substance: FAD synthase (Homo sapiens), Q8NFF5 R228H

effect of a mutation on the interaction [4]: with no effect | effect of a mutation on the interaction [5]: with no effect | effect of a mutation on the interaction [6]: with no effect | effect of a mutation on the interaction [7]: with no effect | effect of a mutation on the interaction [8]: with no effect
Substance: Homeobox protein Hox-A1 (Homo sapiens), P49639 S98R

effect of a mutation on the interaction [9]: with no effect | effect of a mutation on the interaction [10]: with no effect | effect of a mutation on the interaction [11]: with no effect | effect of a mutation on the interaction [12]: with no effect | effect of a mutation on the interaction [13]: with no effect | effect of a mutation on the interaction [14]: with no effect | effect of a mutation on the interaction [15]: with no effect | effect of a mutation on the interaction [16]: with no effect | effect of a mutation on the interaction [17]: with no effect | effect of a mutation on the interaction [18]: with no effect | effect of a mutation on the interaction [19]: with no effect | effect of a mutation on the interaction [20]: with no effect | effect of a mutation on the interaction [21]: with no effect | effect of a mutation on the interaction [22]: with no effect | effect of a mutation on the interaction [23]: with no effect | effect of a mutation on the interaction [24]: with no effect | effect of a mutation on the interaction [25]: with no effect | effect of a mutation on the interaction [26]: with no effect | effect of a mutation on the interaction [27]: with no effect | effect of a mutation on the interaction [28]: with no effect | effect of a mutation on the interaction [29]: with no effect | effect of a mutation on the interaction [30]: with no effect | effect of a mutation on the interaction [31]: with no effect | effect of a mutation on the interaction [32]: with no effect | effect of a mutation on the interaction [33]: with no effect | effect of a mutation on the interaction [34]: with no effect | effect of a mutation on the interaction [35]: with no effect | effect of a mutation on the interaction [36]: with no effect | effect of a mutation on the interaction [37]: with no effect | effect of a mutation on the interaction [38]: with no effect | effect of a mutation on the interaction [39]: with no effect | effect of a mutation on the interaction [40]: with no effect | effect of a mutation on the interaction [41]: with no effect | effect of a mutation on the interaction [42]: with no effect
Substance: Protein N-terminal glutamine amidohydrolase (Homo sapiens), Q96HA8 A52G

effect of a mutation on the interaction [43]: with no effect | effect of a mutation on the interaction [44]: with no effect | effect of a mutation on the interaction [45]: with no effect | effect of a mutation on the interaction [46]: with no effect | effect of a mutation on the interaction [47]: with no effect
Substance: Ubiquitin-conjugating enzyme E2 D4 (Homo sapiens), Q9Y2X8 G27S
